# Source: publication PMC12503259, “Establishment of an in vivo analytical method for detecting total anti-UFH activity and pharmacokinetic study in PS and R15 in rats” (PLOS One, 2025)
# What was measured:
# [1] = Stability in rat plasma at room temperature for 30 min; assay type: in vitro ADME; conditions: for RE%: plasma sample, room temperature (25℃) for 30 min, n=6; for Measured concentration after storage, Mean ± SD / RE (%) versus nominal concentration: rat plasma, room temperature (25°C ± 1°C) for 30 min; for Measured concentration after storage, Mean ± SD: n = 6
# Procedure: Processing of Plasma Samples: 100 μL of the unknown plasma sample was added to 500 μL of 75% methanol (methanol: water = 75:25, v/v) and vortex-mixed for 5 seconds. The mixture was then centrifuged at 12,000 r/min for 10 minutes at 25°C. The supernatant (500 μL) was collected and dried under nitrogen at 60°C. Subsequently, UFH (0.14 U·mL^-1 for PS and 0.15 U·mL^-1 for R15; 120 μL) was added, and the mixture was vigorously shaken at room temperature for 10 minutes. The residual UFH content was measured using the Heparin Anti-FXa assay kit.
# The detailed procedure is as follows: Accurately pipette 40 μL of the sample into a 96-well plate. Place the plate in a microplate shaker. Using a multichannel pipette, add 40 μL of reagent R1 and mix by shaking. Incubate at 37 °C for exactly 3 minutes (start timing upon addition of R1; at 50 seconds, begin shaking with the microplate shaker for 1 minute, then place the plate in the incubator). Remove the 96-well plate from the incubator and place it on the open microplate shaker. Using a multichannel pipette, add 40 μL of reagent R2 to each well and incubate at 37 °C for 6 minutes (after adding R2, at 3 minutes and 50 seconds, open the microplate shaker and shake for 4 minutes, then return the plate to the incubator). Remove the 96-well plate from the incubator and place it on the open microplate shaker. Quickly add 40 μL of reagent R3 using a multichannel pipette and shake until 9 minutes and 10 seconds. At 9 minutes and 30 seconds, add 80 μL of 20% acetic acid to each well to terminate the reaction. Measure the absorbance at 405 nm using a microplate reader (Multiskan FC, Thermo Fisher US).
# (§1) Two concentration levels (low and high QC) were evaluated for validation of storage stability and freeze/thaw stability. Two concentration levels of PS and R15 (low and high QC) in blank rat plasma were prepared (n = 6), respectively. Samples in rats’ plasma were determined after storage at room temperature (25°C ± 1°C) for 30 min. Samples in rats’ plasma were under three freeze (−80°C)-thaw (25°C) cycles. Stock solution of PS and R15 were stored at 4°C for a week. All the samples mentioned above were processed by calibration curves with adequate QC samples diluted from newly prepared stock solution of PS and R15, followed by procedure of sample determination (see “Sample Preparation”), respectively.
# [2] = Stability of stock solution at 4°C for a week; assay type: physicochemical; conditions: for Measured concentration after storage, Mean ± SD: stock solution (10 mg·mL^-1 in deionized water) stored 1 week at 4°C, n = 6; for Mean determined concentration, stability of stock solution / RE%: stock solution for 1 week; for Mean determined concentration, stability of stock solution: mean of n=6; for RE%: n=6; for RE (%) versus nominal concentration: stock solution stored 1 week at 4°C
# Procedure: Preparation of Stock Solutions: Appropriate amounts of PS and R15 powders were accurately weighed and dissolved in deionized water to obtain stock solutions at 10 mg·mL^-1, respectively. This solution was stored in a refrigerator at 4 °C and replaced regularly.
# as §1
# [3] = Specific activity, units of UFH neutralized per mg; assay type: biochemical; conditions: units of UFH exactly neutralized per milligram
# Excerpt: Since the toxicity of both PS and R15 correlates with their heparin antagonism capacity (i.e., potency), the units used for PS and R15 in most experiments are U·mL^-1 or U·kg^-1. Employing activity units (U) allows for a more scientifically rigorous comparison of the pharmacokinetic parameters of PS and R15 under equivalent activity levels (i.e., equivalent heparin antagonism capacity).
# The specific activity of PS is 150 U·mg^-1, meaning that each milligram of PS can exactly neutralize 150 units of UFH. The specific activity of R15 is 170 U·mg^-1, meaning that each milligram of R15 can exactly neutralize 170 units of UFH. Therefore, expressing the concentration of PS as 1 U·mL^-1 denotes that each milliliter of the medium contains sufficient PS to neutralize 1 unit of UFH, and the same applies to R15.
# complement = conditions: under UFH excess; cited from earlier work
# Excerpt: PS and UFH-PS complexes activate complement. Complement fragments can accumulate in the pulmonary microcirculation, up-regulate endothelial adhesion molecules, and recruit neutrophils and monocytes, forming inflammatory microthrombi.
# [4] = test system: activated partial thromboplastin time (APTT); conditions: in vitro, supratherapeutic amounts; cited from earlier work
# [5] = clinical use; cited from earlier work
# Excerpt: PS is a cationic protein mixture with a molecular weight of 4000–6000 Da, and is the only heparin antagonist approved for clinical use. PS is primarily extracted from the sperm of wild salmon species, and this cationic protein binds to the anionic heparin, forming a UFH-PS complex that neutralizes the activity of heparin [7–10]. However, PS is associated with several adverse reactions in clinical applications, such as systemic hypotension, pulmonary hypertension, and allergic reactions. Despite extensive exploration of its mechanisms, the underlying causes of PS-related a ...
# [6] = in vivo; cited from earlier work
# Excerpt: In clinical practice, PS is typically administered at 1.2 times the anti-heparin activity of circulating UFH to achieve complete neutralization [40, 41].
substance,measurement,setting,value
Protamine sulfate [PS],RE%,[1]; nominal 0.70 μg/mL,8.10%
same,RE%,[1]; nominal 1.50 μg/mL,4.44%
same,"Measured concentration after storage, Mean ± SD","[1]; nominal 0.7 μg·mL^-1, anti-FXa read-out at 405 nm",0.76 ± 0.01 µg/mL
same,RE (%) versus nominal concentration,"[1]; nominal 0.7 μg·mL^-1, n = 6",8.10%
same,"Measured concentration after storage, Mean ± SD","[1]; nominal 1.5 μg·mL^-1, anti-FXa read-out at 405 nm",1.57 ± 0.09 µg/mL
same,RE (%) versus nominal concentration,"[1]; nominal 1.5 μg·mL^-1, n = 6",4.44%
same,"Measured concentration after storage, Mean ± SD","[2]; then diluted to nominal 0.7 μg·mL^-1, anti-FXa read-out",0.59 ± 0.02 µg/mL
same,"Measured concentration after storage, Mean ± SD","[2]; then diluted to nominal 1.5 μg·mL^-1, anti-FXa read-out",1.44 ± 0.04 µg/mL
same,"Mean determined concentration, stability of stock solution",[2]; nominal 0.7 μg/mL,0.59 µg/mL
same,RE%,[2]; nominal 0.7 μg/mL,-15.2%
same,"Mean determined concentration, stability of stock solution",[2]; nominal 1.5 μg/mL,1.44 µg/mL
same,RE%,[2]; nominal 1.5 μg/mL,-4.1%
same,RE (%) versus nominal concentration,"[2]; nominal 0.7 μg·mL^-1, n = 6",−15.2%
same,RE (%) versus nominal concentration,"[2]; nominal 1.5 μg·mL^-1, n = 6",−4.1%
same,specific activity,[3],150 U·mg^-1
same,complement activation by UFH-PS complex relative to UFH–R15 complex,complement,8.28 fold
same,effect of excess on APTT,[4],persistently prolonged APTT
same,rate of mild adverse reactions,[5],≤ 16%
same,T1/2,[6],7.4 min
